Source: patent publication US20200199241A1 (Chugai, published 2020)

T1: FcγRIIa type R (human, UniProt P12318 36-217)
T1 construct: also called FcγRIIaR; FcγRIIa(R)
T1 chain: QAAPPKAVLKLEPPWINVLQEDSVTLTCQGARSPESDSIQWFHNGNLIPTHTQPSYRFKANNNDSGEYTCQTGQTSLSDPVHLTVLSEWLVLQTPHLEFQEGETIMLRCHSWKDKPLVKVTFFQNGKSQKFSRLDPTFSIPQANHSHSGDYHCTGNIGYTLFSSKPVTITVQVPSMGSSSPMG

T2: FcγRIIb (human, UniProt P31994 43-217, limits assumed)
T2 construct: also called FcγIIB; CD32
T2 sequence: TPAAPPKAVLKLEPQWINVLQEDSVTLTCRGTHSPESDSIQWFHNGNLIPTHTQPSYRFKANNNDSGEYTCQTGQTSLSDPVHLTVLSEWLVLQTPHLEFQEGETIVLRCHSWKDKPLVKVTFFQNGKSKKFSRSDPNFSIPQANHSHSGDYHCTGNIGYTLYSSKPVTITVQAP

T3: FcγRIIa type H (human, UniProt P12318 36-217)
T3 construct: also called FcγRIIaH; FcγRIIa(H)
T3 sequence: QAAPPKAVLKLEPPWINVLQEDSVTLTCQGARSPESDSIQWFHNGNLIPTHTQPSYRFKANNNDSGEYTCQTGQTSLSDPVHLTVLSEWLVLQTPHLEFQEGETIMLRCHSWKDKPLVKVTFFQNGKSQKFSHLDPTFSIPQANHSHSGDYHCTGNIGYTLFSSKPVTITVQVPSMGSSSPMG


How the values were obtained:
FcγRIa = target: T4, FcγRIa (human, UniProt P12314 16-292, limits assumed); assay: SPR (Biacore), method of Example 14
T4 construct: also called CD64
T4 sequence (P12314 16-292 limits assumed): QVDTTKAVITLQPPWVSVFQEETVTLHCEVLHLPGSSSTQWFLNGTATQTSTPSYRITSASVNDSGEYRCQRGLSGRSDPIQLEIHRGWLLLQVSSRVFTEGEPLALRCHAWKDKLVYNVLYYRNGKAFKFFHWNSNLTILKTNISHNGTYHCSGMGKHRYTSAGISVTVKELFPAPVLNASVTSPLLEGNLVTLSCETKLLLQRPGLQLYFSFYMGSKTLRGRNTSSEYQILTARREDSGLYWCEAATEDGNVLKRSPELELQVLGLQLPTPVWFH
Description: (§1) Furthermore, KD(IIaR)/KD(IIb) and KD(IIaH)/KD(IIb) in the table respectively represent the value obtained by dividing the KD value of each variant for FcγRIIaR by the KD value of each variant for FcγRIIb, and the value obtained by dividing the KD value of each variant for FcγRIIaH by the KD value of each variant for FcγRIIb. KD(IIb) of the parent polypeptide/KD(IIb) of the altered polypeptide refers to the value obtained by dividing the KD value of the parent polypeptide for FcγRIIb by the KD value of each variant for FcγRIIb.

FcγRIIa type R = target: T1, FcγRIIa type R; assay: SPR (Biacore), method of Example 14
Description: as §1

FcγRIIb [1] = target: T2, FcγRIIb; assay: SPR (Biacore), method of Example 14
Description: as §1

FcγRIIIa type V = target: T5, FcγRIIIa type V (human, UniProt P08637 17-208, limits assumed); assay: SPR (Biacore), method of Example 14
T5 construct: also called FcγRIIIaV; FcγRIIIa(V)
T5 sequence (P08637 17-208 F176V limits assumed): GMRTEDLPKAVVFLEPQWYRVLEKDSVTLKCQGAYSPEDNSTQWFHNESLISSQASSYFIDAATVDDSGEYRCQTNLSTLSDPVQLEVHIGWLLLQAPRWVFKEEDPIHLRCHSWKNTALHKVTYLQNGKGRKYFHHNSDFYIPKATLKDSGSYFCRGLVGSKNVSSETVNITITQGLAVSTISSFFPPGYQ
Description: as §1

FcγRIIa type H = target: T3, FcγRIIa type H; assay: SPR (Biacore), method of Example 14
Description: as §1

FcγRIIb [2] = target: T2, FcγRIIb; assay: SPR (Biacore); KD for FcγRIIaR divided by KD for FcγRIIb of the same antibody; column head in Table 52-1
Description: as §1

FcγRIIb [3] = target: T2, FcγRIIb; assay: ratio of SPR KD values, parent IL6R-B3/IL6R-L
FcγRIIb [4] = target: T2, FcγRIIb; assay: SPR (Biacore); KD for FcγRIIaH divided by KD for FcγRIIb of the same antibody; column head in Table 52-1
Description: as §1

Kd (FcγRIa) [nM]	Kd (FcγRIIa type R) [nM]	Kd (FcγRIIb [1]) [nM]	Kd (FcγRIIIa type V) [nM]	Kd (FcγRIIa type H) [nM]	KD(IIaR)/KD(IIb) (FcγRIIb [2])	KD(IIb) of the parent polypeptide/KD(IIb) of altered polypeptide (FcγRIIb [3]) [fold]	KD(IIaH)/KD(IIb) (FcγRIIb [4])	Binder
11	2300	130	66000	30000	18.2	24.5	238	IL6R-BP184/IL6R-L (antibody, human IgG1, Anti-IL-6R human IgG1 variant; copies: 2 + 2) heavy: QVQLQESGPGLVKPSETLSLTCAVSGHSISHDHAWSWVRQPPGEGLEWIGFISYSGITNYNPSLQGRVTISRDNSKNTLYLQMNSLRAEDTAVYYCARSLARTTAMDYWGEGTLVTVSSASTKGPSVFPLAPSSKSTSGGTAALGCLVKDYFPEPVTVSWNSGALTSGVHTFPAVLQSSGLYSLSSVVTVPSSSLGTQTYICNVNHKPSNTKVDKKVEPKSCDKTHTCPPCPAPDLLGGDSVFLFPPKPKDTLMISRTPEVTCVVVDVSHEDGEVKFNWYVDGVEVHNAKTKPREEQYNSTYRVVSVLTVLHQDWLNGKEYKCKVSNKALPKPIEKTISKAKGQPREPQVYTLPPSRDELTKNQVSLTCLVKGFYPSDIAVEWESNGQPENNYKTTPPVLDSDGSFFLYSKLTVDKSRWQQGNVFSCSVMHEALHNHYTQESLSLSP light: DIQMTQSPSSLSASVGDRVTITCRASQDISSYLNWYQQKPGKAPKLLIYYTSRLHSGVPSRFSGSGSGTDFTFTISSLQPEDIATYYCQQGNTLPYTFGQGTKVEIK
42	1400	74	49000	21000	18.5	41.8	284	IL6R-BP189/IL6R-L (antibody, human IgG1, Anti-IL-6R human IgG1 variant; copies: 2 + 2) heavy: QVQLQESGPGLVKPSETLSLTCAVSGHSISHDHAWSWVRQPPGEGLEWIGFISYSGITNYNPSLQGRVTISRDNSKNTLYLQMNSLRAEDTAVYYCARSLARTTAMDYWGEGTLVTVSSASTKGPSVFPLAPSSKSTSGGTAALGCLVKDYFPEPVTVSWNSGALTSGVHTFPAVLQSSGLYSLSSVVTVPSSSLGTQTYICNVNHKPSNTKVDKKVEPKSCDKTHTCPPCPAPELLGDDSVFLFPPKPKDTLMISRTPEVTCVVVDVSDEDGEVKFNWYVDGVEVHNAKTKPREEQYNSTYRVVSVLTVLHQDWLNGKEYKCKVSNAALPKPIEKTISKAKGQPREPQVYTLPPSRDELTKNQVSLTCLVKGFYPSDIAVEWESNGQPENNYKTTPPVLDSDGSFFLYSKLTVDKSRWQQGNVFSCSVMHEALHNHYTQESLSLSP light: DIQMTQSPSSLSASVGDRVTITCRASQDISSYLNWYQQKPGKAPKLLIYYTSRLHSGVPSRFSGSGSGTDFTFTISSLQPEDIATYYCQQGNTLPYTFGQGTKVEIK
25	2800	290	56000	18000	9.7	10.7	62.3	IL6R-BP187/IL6R-L (antibody, human IgG1, Anti-IL-6R human IgG1 variant; copies: 2 + 2) heavy: QVQLQESGPGLVKPSETLSLTCAVSGHSISHDHAWSWVRQPPGEGLEWIGFISYSGITNYNPSLQGRVTISRDNSKNTLYLQMNSLRAEDTAVYYCARSLARTTAMDYWGEGTLVTVSSASTKGPSVFPLAPSSKSTSGGTAALGCLVKDYFPEPVTVSWNSGALTSGVHTFPAVLQSSGLYSLSSVVTVPSSSLGTQTYICNVNHKPSNTKVDKKVEPKSCDKTHTCPPCPAPEYLGGDSVFLFPPKPKDTLMISRTPEVTCVVVDVSHEDGEVKFNWYVDGVEVHNAKTKPREEQYNSTYRVVSVLTVLHQDWLNGKEYKCKVSNAALPKPIEKTISKAKGQPREPQVYTLPPSRDELTKNQVSLTCLVKGFYPSDIAVEWESNGQPENNYKTTPPVLDSDGSFFLYSKLTVDKSRWQQGNVFSCSVMHEALHNHYTQESLSLSP light: DIQMTQSPSSLSASVGDRVTITCRASQDISSYLNWYQQKPGKAPKLLIYYTSRLHSGVPSRFSGSGSGTDFTFTISSLQPEDIATYYCQQGNTLPYTFGQGTKVEIK
45	960	61	49000	9300	15.8	50.7	152	IL6R-BP186/IL6R-L (antibody, human IgG1, Anti-IL-6R human IgG1 variant; copies: 2 + 2) heavy: QVQLQESGPGLVKPSETLSLTCAVSGHSISHDHAWSWVRQPPGEGLEWIGFISYSGITNYNPSLQGRVTISRDNSKNTLYLQMNSLRAEDTAVYYCARSLARTTAMDYWGEGTLVTVSSASTKGPSVFPLAPSSKSTSGGTAALGCLVKDYFPEPVTVSWNSGALTSGVHTFPAVLQSSGLYSLSSVVTVPSSSLGTQTYICNVNHKPSNTKVDKKVEPKSCDKTHTCPPCPAPDYLGDDSVFLFPPKPKDTLMISRTPEVTCVVVDVSHEDGEVKFNWYVDGVEVHNAKTKPREEQDNSTYRVVSVLTVLHQDWLNGKEYKCKVSNAALPKPIEKTISKAKGQPREPQVYTLPPSRDELTKNQVSLTCLVKGFYPSDIAVEWESNGQPENNYKTTPPVLDSDGSFFLYSKLTVDKSRWQQGNVFSCSVMHEALHNHYTQESLSLSP light: DIQMTQSPSSLSASVGDRVTITCRASQDISSYLNWYQQKPGKAPKLLIYYTSRLHSGVPSRFSGSGSGTDFTFTISSLQPEDIATYYCQQGNTLPYTFGQGTKVEIK
21	1000	46	58000	16000	21.9	67.6	350	IL6R-BP188/IL6R-L (antibody, human IgG1, Anti-IL-6R human IgG1 variant; copies: 2 + 2) heavy: QVQLQESGPGLVKPSETLSLTCAVSGHSISHDHAWSWVRQPPGEGLEWIGFISYSGITNYNPSLQGRVTISRDNSKNTLYLQMNSLRAEDTAVYYCARSLARTTAMDYWGEGTLVTVSSASTKGPSVFPLAPSSKSTSGGTAALGCLVKDYFPEPVTVSWNSGALTSGVHTFPAVLQSSGLYSLSSVVTVPSSSLGTQTYICNVNHKPSNTKVDKKVEPKSCDKTHTCPPCPAPDLLGDDSVFLFPPKPKDTLMISRTPEVTCVVVDVSDEDGEVKFNWYVDGVEVHNAKTKPREEQYNSTYRVVSVLTVLHQDWLNGKEYKCKVSNKALPKPIEKTISKAKGQPREPQVYTLPPSRDELTKNQVSLTCLVKGFYPSDIAVEWESNGQPENNYKTTPPVLDSDGSFFLYSKLTVDKSRWQQGNVFSCSVMHEALHNHYTQESLSLSP light: DIQMTQSPSSLSASVGDRVTITCRASQDISSYLNWYQQKPGKAPKLLIYYTSRLHSGVPSRFSGSGSGTDFTFTISSLQPEDIATYYCQQGNTLPYTFGQGTKVEIK
63	1100	58	45000	17000	12.3	53.2	293	IL6R-BP190/IL6R-L (antibody, human IgG1, Anti-IL-6R human IgG1 variant; copies: 2 + 2) heavy: QVQLQESGPGLVKPSETLSLTCAVSGHSISHDHAWSWVRQPPGEGLEWIGFISYSGITNYNPSLQGRVTISRDNSKNTLYLQMNSLRAEDTAVYYCARSLARTTAMDYWGEGTLVTVSSASTKGPSVFPLAPSSKSTSGGTAALGCLVKDYFPEPVTVSWNSGALTSGVHTFPAVLQSSGLYSLSSVVTVPSSSLGTQTYICNVNHKPSNTKVDKKVEPKSCDKTHTCPPCPAPELLGDDSVFLFPPKPKDTLMISRTPEVTCVVVDVSDEDGEVKFNWYVDGVEVHNAKTKPREEQYNSTYRVVSVLTVLHQDWLNGKEYKCKVSNKALPKPIEKTISKAKGQPREPQVYTLPPSRDELTKNQVSLTCLVKGFYPSDIAVEWESNGQPENNYKTTPPVLDSDGSFFLYSKLTVDKSRWQQGNVFSCSVMHEALHNHYTQESLSLSP light: DIQMTQSPSSLSASVGDRVTITCRASQDISSYLNWYQQKPGKAPKLLIYYTSRLHSGVPSRFSGSGSGTDFTFTISSLQPEDIATYYCQQGNTLPYTFGQGTKVEIK
24	820	52	27000	8500	15.8	59.4	164	IL6R-BP194/IL6R-L (antibody, human IgG1, Anti-IL-6R human IgG1 variant; copies: 2 + 2) heavy: QVQLQESGPGLVKPSETLSLTCAVSGHSISHDHAWSWVRQPPGEGLEWIGFISYSGITNYNPSLQGRVTISRDNSKNTLYLQMNSLRAEDTAVYYCARSLARTTAMDYWGEGTLVTVSSASTKGPSVFPLAPSSKSTSGGTAALGCLVKDYFPEPVTVSWNSGALTSGVHTFPAVLQSSGLYSLSSVVTVPSSSLGTQTYICNVNHKPSNTKVDKKVEPKSCDKTHTCPPCPAPDYLGDDSVFLFPPKPKDTLMISRTPEVTCVVVDVSDEDGEVKFNWYVDGVEVHNAKTKPREEQYNSTYRVVSVLTVLHQDWLNGKEYKCKVSNAALPKPIEKTISKAKGQPREPQVYTLPPSRDELTKNQVSLTCLVKGFYPSDIAVEWESNGQPENNYKTTPPVLDSDGSFFLYSKLTVDKSRWQQGNVFSCSVMHEALHNHYTQESLSLSP light: DIQMTQSPSSLSASVGDRVTITCRASQDISSYLNWYQQKPGKAPKLLIYYTSRLHSGVPSRFSGSGSGTDFTFTISSLQPEDIATYYCQQGNTLPYTFGQGTKVEIK
